Measured values reported in the supplement of paper PMC9170038.

Assays:
[1] = test system: MS2 coat protein; assay: apparent KD of MS2 coat protein, switch ON state; designed switch direction (-1 OFF switch, 1 ON switch): 1; higher = weaker reporter binding; conditions: FMN input: 0 or 200 uM; Eterna round: R93 (includes R88 designs)
In short: (§1)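 For every design, apparent KD is the median of normalised binding-curve fits from its clusters. The RNA switches were transcribed on-chip from Illumina sequencing clusters and titrated with SNAP-549-labelled MS2 coat protein (twofold steps, 0.7 or 1.5 nM to 3 µM; 0.8–1.5 h to 10–20 min per step). Titrations used 100 mM Tris-HCl pH 7.5, 80 mM KCl, 4 mM MgCl2, without or with constant ligand.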

[2] = test system: MS2 coat protein; assay: apparent KD of MS2 coat protein, switch OFF state (with FMN for OFF switches, without FMN for ON switches); designed switch direction (-1 OFF switch, 1 ON switch): 1; higher = weaker reporter binding; conditions: FMN input: 0 or 200 uM; Eterna round: R93 (includes R88 designs)
In short: as §1

Sequence | apparent KD of MS2 coat protein [1] [nM] | apparent KD of MS2 coat protein [2] [nM]
AUAAAACAUGAGGAUCACCCAUGUAGAAAUAUGGGAGGAUAUACAAAGACGAAAGUCAAAGUAGAAGGCCUAAAAG [Mod of Meechl's design Meechl MS2 SS1 2] | 24 | 66.2
AUUCCAAAUAGUCAGGAUAUCAGAAGUAAGACAUGAGGAUCACCCAUGUACUUAGUAAAAGUAACUGAGAAGGGACAGGGUGUAA [JR_SS002_Sub405] | 17.4 | 16.1
ACUAUACAUGAGGAUCACCCAUGUCAGGUGGGACUAGGAUAUCAUAAGCCAGAGUAAGUAUGAGAAGGAGUAGAAA [JR_SS001_Sub305] | 73.2 | 74.7
AAAUAAAAAAAAAAGGAUAUUCAUGUGAAAACAUGAGGAUCACCCAUGUAAAAAAAUAAAAAUAAAAAGAAGGAAAAAUAAAAAA [SS2: 86 No MS2] | 571 | 841
AACAAUCUAUCUGAGGAUAUAUGUCGAAAGACAUGAGGAUCACCCAUGUGAAAACAUGAAAAGACAUAGAAGGCAGAUAGAUUGA [SS2: 1131] | 27.4 | 47.3
GAAGACAUAGUUCAGGAUAUAGGAAUAGUCACAUGAGGAUCACCCAUGUGCAUUUAUAUGCGCGCUUAGAAGGGAGGUAGAUAAU [Mat - Same state - Malcolm Mod - D119] | 24.5 | 21.2
AAGAAACAUGAGGAUCACCCAUGUAGAAACAUGGGAGGAUAUACAAAGACGAAAGUCAAAGUAGAAGGCCUAAGAA [Mat - Same State 1 - Mod - D164] | 102 | 63.5
AAACAGAUAGGACAGGAUAUGUCGUGAUAAACAUGAGGAUCACCCAUGUGAGACAUCACGUAAUCGCAGAAGGGUCCCGUCUUAC [Usonsoave] | 11.1 | 12.7
CUGGACAUAGUAUAGGAUAUAUGAAUAAUUACAUGAGGAUCACCCAUGUCCAUUUAUAUGGGAACAUAGAAGGGUGGUAGUUAAG [Mat - Same state - Malcolm Mod - D142] | 147 | 97.6
AUAAAACAUGAGGAUCACCCAUGUAGAAACAUGGGAGGAUAUACAAAGACGAAAGUCAAAGUAGAAGGCCUAAAAG [Meechl MS2 SS1 2] | 104 | 67.3
AGAAAUAAAGCUGAGGAUAUCCAAAACCAAACAUGAGGAUCACCCAUGUAAAAGAAAAUAAAAUGGGAGAAGGCAGCAAAUAAGA [Designing denovo 8] | 12.5 | 21.9
UGGAGACAUGAGGAUCACCCAUGUGAGAAGAGGCGAGGAUAUCGAAAGAAAGAAGAGAAACGAGAAGGCGCGAGUG [salish99-SS1-042] | 40.3 | 46.9
UGGAAACAUGAGGAUCACCCAUGUAAAAGGUGGUCAGGAUAUGCGAAAAGAAAAAGAAAAGUAGAAGGGACAAGAA [Mod of Eli's Mod] | 65.9 | 67.8
AAUAAACAUGAGGAUCACCCAUGUAAUAAUAUGGGAGGAUAUACUAAAAUAAAAUAAAAUGUAGAAGGCCUAAUAA [LROPPY Same State 1 - v05_deltaG=1.05 break up the As] | 35.5 | 159
AUAAAACAUGAGGAUCACCCAUGUGAAAAUAUGGGAGGAUAUACGUAGACGAAAGUCGACGUAGAAGGCCUAAAAG [Same State 1.4n.2 (Mat - Mod of Eli - )] | 28.8 | 81.8
GAAAAACAUGAGGAUCACCCAUGUGUAAAUAUGGGAGGAUAUACAAAGACGAAAGUCAAAGUAGAAGGCCUAAAAG [Mat - Same State 1 - Eli mod - D5] | 23.2 | 190
GAGGACAUAGUAUAGGAUAUAUGAAUAAUUACAUGAGGAUCACCCAUGUCCAUUUAUAUGGGAACAUAGAAGGGUGGUAGUUGUC [Mat - Same state - Malcolm Mod - D130] | 73 | 200
AGGAAACAUGAGGAUCACCCAUGUAAAGAUGGGCGAGGAUAUCGAAAGAAAAGAAAGAAACGAGAAGGUGCAAAAG [59%, Flamingo, 1] | 409 | 251
AAAUGACAUGAGGAUCACCCAUGUCCACCAAACGGAGGAUAUUGGGCGGAAAAACGUUGUUAAGAAGGCCGAAAAA [SS1-1.0] | 143 | 73.7
